These results are taken from US20260265390A1 (SHANDONG SIMCERE BIOPHARMACEUTICAL, published 2026).

Assay [1] has as its target T1, human GPRC5D, expressed on cells (human, UniProt Q9NZD1 1-345).
T1 construct: whole, on cells; Overexpressed on CHOK1 cells; also called CHOK1-human GPRC5D cells
Kind of assay: FACS, CHOK1-human GPRC5D cells. On the procedure:
(§1) Flp-inCHO-human BCMA cells and CHOK1-human GPRC5D cells were scale-up cultured in T-75 cell culture flask to the logarithmic growth phase, respectively, and the cells were pipetted to obtain a single cell suspension. After the cells were counted and centrifuged, the cell precipitate was resuspended to 2×10⁶ cells per milliliter with a FACS buffer (PBS+2% fetal bovine serum). The suspension was added to a 96-well FACS reaction plate at 50 μl/well. 8 concentrations of the anti-BCMA-GPRC5D-CD3 antibodies or control antibodies were added at 50 μl/well, wherein gradient dilution was performed at a dilution ratio of 5 from a concentration of 100 nM. The cells were incubated at 4° C. for 1 h. The obtained mixture was centrifuged and washed 3 times with a PBS buffer. […] The obtained mixture was centrifuged and washed 3 times with a PBS buffer. 100 μl of the mixture was taken for detection and result analysis by FACS (FACS Canto™, purchased from BD Company). Data analysis was performed by software (FlowJo) to obtain the mean fluorescence intensity (MFI) of the cells. Then, a software (GraphPad Prism8) was used for analysis, data fitting and EC50 calculation.
On the technique in general: Flow cytometry measures light scatter and fluorescence of single cells or particles in a stream.

In assay [2] the target is T2, monkey CD3, on activated monkey PBMC (monkey).
T2 construct: whole, on cells
Put plainly: FACS, activated monkey PBMC.

Assay [3] addresses T3, human CD3, endogenous on Jurkat cells and on activated human PBMC (human, UniProt P07766 23-207; P04234 22-171).
T3 construct: whole, on cells; CD3 complex as it stands on T cells
Kind of assay: FACS, activated human PBMC.

Assay [4] deals with T3, human CD3, endogenous on Jurkat cells …. Kind of assay: FACS, Jurkat cells.
For assay [5], the target named is T4, human BCMA (B cell maturation antigen), expressed on cells (human, UniProt Q02223 1-184).
T4 construct: whole, on cells; Overexpressed on Flp-in CHO cells; also called Flp-inCHO-human BCMA cells; CD269
T4 sequence (looked up): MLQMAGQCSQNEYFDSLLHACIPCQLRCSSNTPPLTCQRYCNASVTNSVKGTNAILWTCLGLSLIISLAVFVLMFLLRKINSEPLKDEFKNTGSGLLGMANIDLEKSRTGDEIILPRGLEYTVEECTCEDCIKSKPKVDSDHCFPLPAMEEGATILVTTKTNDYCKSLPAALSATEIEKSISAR
Kind of assay: FACS, Flp-inCHO-human BCMA cells. On the procedure: as §1

T3 sequence (P07766 23-207, chain 1 of 2): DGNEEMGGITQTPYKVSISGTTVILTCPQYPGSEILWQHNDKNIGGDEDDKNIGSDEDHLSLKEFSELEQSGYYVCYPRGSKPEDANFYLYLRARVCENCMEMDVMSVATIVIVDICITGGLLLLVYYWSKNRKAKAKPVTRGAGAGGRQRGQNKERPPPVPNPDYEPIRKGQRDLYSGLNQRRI
T3 sequence (P04234 22-171, chain 2 of 2): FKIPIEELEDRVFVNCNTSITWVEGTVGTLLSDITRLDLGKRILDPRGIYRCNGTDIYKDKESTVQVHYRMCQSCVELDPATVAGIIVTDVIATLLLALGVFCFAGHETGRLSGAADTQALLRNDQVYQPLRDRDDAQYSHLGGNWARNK
T2 sequence (Q95LI5 22-198): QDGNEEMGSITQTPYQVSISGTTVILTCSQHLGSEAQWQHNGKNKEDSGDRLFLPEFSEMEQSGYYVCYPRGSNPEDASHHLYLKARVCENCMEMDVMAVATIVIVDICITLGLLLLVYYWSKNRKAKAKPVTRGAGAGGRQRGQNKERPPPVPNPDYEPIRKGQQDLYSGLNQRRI
T1 sequence (Q9NZD1 whole entry): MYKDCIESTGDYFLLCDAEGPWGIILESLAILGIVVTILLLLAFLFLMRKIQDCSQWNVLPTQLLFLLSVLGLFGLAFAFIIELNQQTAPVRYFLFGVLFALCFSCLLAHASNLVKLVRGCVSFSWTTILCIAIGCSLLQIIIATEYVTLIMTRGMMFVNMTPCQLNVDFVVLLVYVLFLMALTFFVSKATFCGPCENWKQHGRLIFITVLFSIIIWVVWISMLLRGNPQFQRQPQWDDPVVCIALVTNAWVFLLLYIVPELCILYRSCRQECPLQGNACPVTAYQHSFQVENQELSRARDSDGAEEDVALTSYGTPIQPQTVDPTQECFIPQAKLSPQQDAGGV

B1: Tri-62 anti-BCMA-GPRC5D-CD3 trispecific antibody (other)
VH 1: EGQMVQSGAEVKKPGSSVKVSCKASGYMFTDHTFHWVRQAPGQGLEWMGYIYPRDQNTKYNEKFKGRVTITADKSTSTAYMELSSLRSEDTAVYYCARAGYYGSSHAMDYWGQGTTVTVSS
VL 1: DIQMTQSPSSLSASVGDRVTITCKASQDVSTAVAWYQQKPGKSPRLLIYSASSRYTGVPSRFSGSGSGTDFTFTISSLQPEDIATYYCQQLYSTPWTFGGGTKVEIK
VH 2: EVQLVQSGAEVKKPGSSVKVSCKASGYTFTSYGISWVRQAPGQGLEWMGEIYPRSGNTYYNEKFKGRVTLTADKSTSTAYMELSSLRSEDTAVYYCARGRAYGRNYPMDYWGQGTTVTVSS
VL 2: EIVLTQSPATLSLSPGERATLSCRASQSIGTSIHWYQQKPGQSPRLLIKYASESISGIPARFSGSGSGTDFTLTISSLEPEDFAVYYCQQSNSWPYTFGGGTKVEIK
VH 3: EVQLVESGGGVVQPGRSLRLSCAASGFTFTDYYMSWVRQAPGKGLEWVAMSRNKAKGHTIEYSSSVKGRFTISRDNSKNTLYLQMNSLRAEDTAVYYCARDTYESYDGYFDVWGQGTTVTVSS
VL 3: DIVMTQSPDSLAVSLGERATINCKSSQSLFNSRSRKNYLAWYQQKPGQTPKLLIYWASIRESGVPDRFSGSGSGTDFTLTISSLQAEDVAVYYCKQSYYLYTFGQGTKLEIK
chain 1: ESKYGPPCPPCPAPEAAGGPSVFLFPPKPKDTLMISRTPEVTCVVVDVSQEDPEVQFNWYVDGVEVHNAKTKPREEQFNSTYRVVSVLTVLHQDWLNGKEYKCKVSNKGLPSSIEKTISKAKGQPREPQVYTLPPSQEEMTKNQVSLWCLVKGFYPSDIAVEWESNGQPENNYKTTPPVLDSDGSFFLYSRLTVDKSRWQEGNVFSCSVMHEALHNHYTQKSLSLSLG
chain 2: ESKYGPPCPPCPAPEAAGGPSVFLFPPKPKDTLMISRTPEVTCVVVDVSQEDPEVQFNWYVDGVEVHNAKTKPREEQFNSTYRVVSVLTVLHQDWLNGKEYKCKVSNKGLPSSIEKTISKAKGQPREPQVYTLPPSQEEMTKNQVSLSCAVKGFYPSDIAVEWESNGQPENNYKTTPPVLDSDGSFFLVSRLTVDKSRWQEGNVFSCSVMHEALHNHYTQKSLSLSLG
notes: Trispecific antibody; Asymmetric (purification method B)
In general, EC50 refers to the midpoint of the concentration-response curve. As for B1, the EC50 in assay [1] is 0.4 nM; in assay [2], 85.5 nM; in assay [5], 14.5 nM. Also, the “Maximum mean fluorescence intensity” value amounted to 740 in assay [2], 452 in assay [3] and 462 in assay [4].

B2: Tri-49 anti-BCMA-GPRC5D-CD3 trispecific antibody (other)
VHH: EVQLVESGGGLVQPGGSLRLSCAASESISSIHIMAWYRQAPGKQRELVAGIRNDGSTVYVDSVKGRFTISRDNAKNSLYLQMNSLRAEDTAVYYCNADQGFGSYSEWERRSRWGQGTTVTVSS
VH 1: EVQLVQSGAEVKKPGSSVKVSCKASGYTFTSYGISWVRQAPGQGLEWMGEIYPRSGNTYYNEKFKGRVTLTADKSTSTAYMELSSLRSEDTAVYYCARGRAYGRNYPMDYWGQGTTVTVSS
VL 1: EIVLTQSPATLSLSPGERATLSCRASQSIGTSIHWYQQKPGQSPRLLIKYASESISGIPARFSGSGSGTDFTLTISSLEPEDFAVYYCQQSNSWPYTFGGGTKVEIK
VH 2: EVQLVESGGGVVQPGRSLRLSCAASGFTFTDYYMSWVRQAPGKGLEWVAMSRNKAKGHTIEYSSSVKGRFTISRDNSKNTLYLQMNSLRAEDTAVYYCARDTYESYDGYFDVWGQGTTVTVSS
VL 2: DIVMTQSPDSLAVSLGERATINCKSSQSLFNSRSRKNYLAWYQQKPGQTPKLLIYWASIRESGVPDRFSGSGSGTDFTLTISSLQAEDVAVYYCKQSYYLYTFGQGTKLEIK
chain 1: ESKYGPPCPPCPAPEAAGGPSVFLFPPKPKDTLMISRTPEVTCVVVDVSQEDPEVQFNWYVDGVEVHNAKTKPREEQFNSTYRVVSVLTVLHQDWLNGKEYKCKVSNKGLPSSIEKTISKAKGQPREPQVYTLPPSQEEMTKNQVSLWCLVKGFYPSDIAVEWESNGQPENNYKTTPPVLDSDGSFFLYSRLTVDKSRWQEGNVFSCSVMHEALHNHYTQKSLSLSLG
chain 2: ESKYGPPCPPCPAPEAAGGPSVFLFPPKPKDTLMISRTPEVTCVVVDVSQEDPEVQFNWYVDGVEVHNAKTKPREEQFNSTYRVVSVLTVLHQDWLNGKEYKCKVSNKGLPSSIEKTISKAKGQPREPQVYTLPPSQEEMTKNQVSLSCAVKGFYPSDIAVEWESNGQPENNYKTTPPVLDSDGSFFLVSRLTVDKSRWQEGNVFSCSVMHEALHNHYTQKSLSLSLG
notes: as for B1
With B2, the EC50 in assay [2] came out at 59.4 nM; in assay [3], 31.8 nM; in assay [4], 157 nM.
